B1: Nebulette (Homo sapiens), O76041 (parent)
chain: MRVPVFEDIKDETEEEKIGEEENEEDQVFYKPVIEDLSMELARKCTELISDIRYKEEFKKSKDKCTFVTDSPMLNHVKNIGAFISEAKYKGTIKADLSNSLYKRMPATIDSVFAGEVTQLQSEVAYKQKHDAAKGFSDYAHMKEPPEVKHAMEVNKHQSNISYRKDVQDTHTYSAELDRPDIKMATQISKIISNAEYKKGQGIMNKEPAVIGRPDFEHAVEASKLSSQIKYKEKFDNEMKDKKHHYNPLESASFRQNQLAATLASNVKYKKDIQNMHDPVSDLPNLLFLDHVLKASKMLSGREYKKLFEENKGMYHFDADAVEHLHHKGNAVLQSQVKYKEEYEKNKGKPMLEFVETPSYQASKEAQKMQSEKVYKEDFEKEIKGRSSLDLDKTPEFLHVKYITNLLREKEYKKDLENEIKGKGMELNSEVLDIQRAKRASEMASEKEYKKDLESIIKGKGMQAGTDTLEMQHAKKAAEIASEKDYKRDLETEIKGKGMQVSTDTLDVQRAKKASEMASQKQYKKDLENEIKGKGMQVSMDIPDILRAKRTSEIYSQRKYKDEAEKMLSNYSTIADTPEIQRIKTTQQNISAVFYKKEVGAGTAVKDSPEIERVKKNQQNISSVKYKEEIKHATAISDPPELKRVKENQKNISNLQYKEQNYKATPVSMTPEIERVRRNQEQLSAVKYKGELQRGTAISDPPELKRAKENQKNISNVYYRGQLGRATTLSVTPEMERVKKNQENISSVKYTQDHKQMKGRPSLILDTPAMRHVKEAQNHISMVKYHEDFEKTKGRGFTPVVDDPVTERVRKNTQVVSDAAYKGVHPHIVEMDRRPGIIVDLKVWRTDPGSIFDLDPLEDNIQSRSLHMLSEKASHYRRHWSRSHSSSTFGTGLGDDRSEISEIYPSFSCCSEVTRPSDEGAPVLPGAYQQSHSQGYGYMHQTSVSSMRSMQHSPNLRTYRAMYDYSAQDEDEVSFRDGDYIVNVQPIDDGWMYGTVQRTGRTGMLPANYIEFVN
partner: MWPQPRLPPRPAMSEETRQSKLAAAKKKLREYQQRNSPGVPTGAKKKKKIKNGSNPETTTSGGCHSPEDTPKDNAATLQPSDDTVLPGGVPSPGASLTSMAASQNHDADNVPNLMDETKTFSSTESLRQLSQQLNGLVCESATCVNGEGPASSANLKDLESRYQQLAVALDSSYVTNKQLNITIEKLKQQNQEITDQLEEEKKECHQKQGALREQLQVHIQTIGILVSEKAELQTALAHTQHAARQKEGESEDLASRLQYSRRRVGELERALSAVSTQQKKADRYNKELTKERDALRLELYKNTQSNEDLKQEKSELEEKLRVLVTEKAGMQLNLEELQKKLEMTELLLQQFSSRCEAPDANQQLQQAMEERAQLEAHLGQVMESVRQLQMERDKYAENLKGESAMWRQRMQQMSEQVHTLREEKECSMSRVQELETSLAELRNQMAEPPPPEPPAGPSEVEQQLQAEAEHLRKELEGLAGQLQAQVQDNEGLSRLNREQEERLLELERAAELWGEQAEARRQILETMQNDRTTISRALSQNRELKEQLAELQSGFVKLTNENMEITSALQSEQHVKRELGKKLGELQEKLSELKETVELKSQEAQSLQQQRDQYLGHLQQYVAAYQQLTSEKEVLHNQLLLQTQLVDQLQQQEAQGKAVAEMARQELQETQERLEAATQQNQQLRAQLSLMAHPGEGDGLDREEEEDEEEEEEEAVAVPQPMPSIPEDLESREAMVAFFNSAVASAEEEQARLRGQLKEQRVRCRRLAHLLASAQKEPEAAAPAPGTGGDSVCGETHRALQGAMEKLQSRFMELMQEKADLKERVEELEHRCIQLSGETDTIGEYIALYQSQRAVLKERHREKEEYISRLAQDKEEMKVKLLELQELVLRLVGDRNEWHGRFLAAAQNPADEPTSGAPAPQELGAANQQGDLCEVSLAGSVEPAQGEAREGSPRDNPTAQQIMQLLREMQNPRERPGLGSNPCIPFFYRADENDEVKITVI
B2: Notch homolog 2 N-terminal-like protein A (Homo sapiens), Q7Z3S9 (parent)
chain: MCVTYHNGTGYCKCPEGFLGEYCQHRDPCEKNRCQNGGTCVAQAMLGKATCRCASGFTGEDCQYSTSHPCFVSRPCLNGGTCHMLSRDTYECTCQVGFTGKECQWTDACLSHPCANGSTCTTVANQFSCKCLTGFTGQKCETDVNECDIPGHCQHGGTCLNLPGSYQCQCLQGFTGQYCDSLYVPCAPSPCVNGGTCRQTGDFTFECNCLPETVRRGTELWERDREVWNGKEHDEN
partner: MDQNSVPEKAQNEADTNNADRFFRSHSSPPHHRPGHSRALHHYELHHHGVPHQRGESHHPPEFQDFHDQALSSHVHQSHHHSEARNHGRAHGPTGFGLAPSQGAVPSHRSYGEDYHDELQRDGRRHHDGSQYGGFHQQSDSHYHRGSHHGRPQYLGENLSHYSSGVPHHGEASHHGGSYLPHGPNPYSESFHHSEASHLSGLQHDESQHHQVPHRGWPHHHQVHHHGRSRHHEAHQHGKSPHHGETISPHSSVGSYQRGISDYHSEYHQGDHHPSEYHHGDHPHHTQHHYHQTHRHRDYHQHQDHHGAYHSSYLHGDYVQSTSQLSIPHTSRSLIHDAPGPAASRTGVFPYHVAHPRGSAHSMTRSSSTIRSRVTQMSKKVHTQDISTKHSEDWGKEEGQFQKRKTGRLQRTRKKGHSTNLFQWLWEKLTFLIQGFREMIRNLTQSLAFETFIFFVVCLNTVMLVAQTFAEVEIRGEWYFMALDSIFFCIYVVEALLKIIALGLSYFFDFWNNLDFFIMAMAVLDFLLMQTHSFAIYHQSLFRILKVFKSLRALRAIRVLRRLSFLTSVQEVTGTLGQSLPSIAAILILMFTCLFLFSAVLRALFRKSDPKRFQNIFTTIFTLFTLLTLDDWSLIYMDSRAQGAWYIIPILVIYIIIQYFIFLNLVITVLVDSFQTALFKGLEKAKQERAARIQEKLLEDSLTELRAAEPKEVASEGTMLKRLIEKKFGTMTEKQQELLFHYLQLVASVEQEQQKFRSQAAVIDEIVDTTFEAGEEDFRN
B3: Zinc finger protein Aiolos (Homo sapiens), Q9UKT9 (parent)
chain: MEDIQTNAELKSTQEQSVPAESAAVLNDYSLTKSHEMENVDSGEGPANEDEDIGDDSMKVKDEYSERDENVLKSEPMGNAEEPEIPYSYSREYNEYENIKLERHVVSFDSSRPTSGKMNCDVCGLSCISFNVLMVHKRSHTGERPFQCNQCGASFTQKGNLLRHIKLHTGEKPFKCHLCNYACQRRDALTGHLRTHSVEKPYKCEFCGRSYKQRSSLEEHKERCRTFLQSTDPGDTASAEARHIKAEMGSERALVLDRLASNVAKRKSSMPQKFIGEKRHCFDVNYNSSYMYEKESELIQTRMMDQAINNAISYLGAEALRPLVQTPPAPTSEMVPVISSMYPIALTRAEMSNGAPQELEKKSIHLPEKSVPSERGLSPNNSGHDSTDTDSNHEERQNHIYQQNHMVLSRARNGMPLLKEVPRSYELLKPPPICPRDSVKVINKEGEVMDVYRCDHCRVLFLDYVMFTIHMGCHGFRDPFECNMCGYRSHDRYEFSSHIARGEHRALLK
partner: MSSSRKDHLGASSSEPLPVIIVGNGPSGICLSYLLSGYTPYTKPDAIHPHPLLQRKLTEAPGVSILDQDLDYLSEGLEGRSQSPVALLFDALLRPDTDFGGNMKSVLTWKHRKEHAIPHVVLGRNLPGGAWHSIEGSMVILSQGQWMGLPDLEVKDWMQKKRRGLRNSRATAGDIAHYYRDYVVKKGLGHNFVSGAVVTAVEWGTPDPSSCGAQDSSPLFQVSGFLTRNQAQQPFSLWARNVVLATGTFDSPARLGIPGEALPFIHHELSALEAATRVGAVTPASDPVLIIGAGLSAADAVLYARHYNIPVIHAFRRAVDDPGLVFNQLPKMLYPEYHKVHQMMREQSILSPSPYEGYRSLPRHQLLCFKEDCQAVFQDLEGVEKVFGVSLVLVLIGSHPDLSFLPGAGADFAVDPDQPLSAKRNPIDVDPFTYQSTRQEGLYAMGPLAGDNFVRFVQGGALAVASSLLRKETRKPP

Variants of: B1
Conditions: with goga2_human GOLGA2, Q08379

Variant | effect of a mutation on the interaction
M351V | with no effect
R613Q | with no effect

Variants of: B2
Conditions: with ctsr1_human CATSPER1, Q8NEC5

Variant | effect of a mutation on the interaction
R74Q | with no effect
A115T | with no effect

Variants of: B3
Conditions: with osgi1_human OSGIN1, Q9UJX0

Variant | effect of a mutation on the interaction
A24V | with no effect
N119D | with no effect
